How the values were obtained:
RbAp46 [1] = biological target: T1, RbAp46 (Homo sapiens, UniProt Q16576); experiment: BS3 chemical crosslinking with RbAp46; assay type: binding; details: BS3 crosslinker; 1.1 M NaCl, 20 mM HEPES pH 7.5, 10 mM DTT; ∼10 μM protein; room temperature 30 min; NuPAGE, Coomassie and anti-H3/anti-H4 immunoblot
T1 construct: His-tag (cleaved yes); made in house; host or cells: insect cells (baculovirus)
Text: Figure 4 Interaction of Histones H3 and H4 with RbAp46 (A) Comparison of chemical crosslinking of histones H3 and H4 in the absence and presence of RbAp46. Three different 4%–12% NuPAGE gels were either (i) stained with Coomasie blue or blotted with (ii) anti-histone H4 or (iii) anti-histone H3 antibodies. By themselves, histones H3 and H4 appear to form a H3/H4 heterodimer (∼25 kDa), an H3_2 homodimer (∼30 kDa), and an H3_2/H4_2 heterotetramer (∼50 kDa), indicated by arrowheads. In the presence of RbAp46, two bands, which both contain histones H3 and H4 (also indicated by arrowheads), can be seen in positions roughly corresponding to the interaction of RbAp46 with histone H3/H4 dimers and tetramers (∼65–75 kDa). […] The fractions were collected and analyzed on 4%–12% NuPAGE gels.
RbAp46/H3/H4 crosslinking was performed by using the BS^3 crosslinker (Pierce) in 1.1 M NaCl, 20 mM HEPES (pH 7.5), and 10 mM DTT. Freshly prepared BS^3 stock solution, 3% (w/v), was diluted 1/5, 1/10, 1/20, 1/50, and 1/100 with distilled water, and 1 μl of the resulting solution was mixed with 10 μl of ∼10 μM RbAp46, recombinant histone H3/H4, or RbAp46/H3/H4 prior to incubation at room temperature for 30 min. […] The proteins were analyzed on separate 4%–12% NuPAGE gels, one for Coomassie blue staining and one for each Western blot with either anti-histone H3 (Abcam) or anti-histone H4 (A.V.) antibodies.

RbAp46 [2] = biological target: T1, RbAp46; experiment: Reciprocal pull-down of 35S-labeled RbAp46 with GST-histone H4 (1–48) mutants; assay type: binding; details: autoradiogram, 300 mM NaCl, 20 mM Tris pH 8.0, 5 mM DTT, 0.1% (v/v) NP-40
Text: Figure 2 Histone H4 Recognition by the RbAp46-Binding Pocket (A) Electrostatic surface potential of RbAp46 contoured and color coded at −91 kT (red) and +91 kT (blue). […] The histone H4 peptide is shown as a stick model. The histone H4-binding pocket in RbAp46 is mainly formed by the negatively charged PP loop (which terminates in Pro-362 and Pro-363) and a hydrophobic surface on the N-terminal α helix (helix 1). The interaction of histone H4 residues (Gln-27, Lys-31, Ile-34, Arg-35, Arg-36, Leu-37, Arg-39, and Arg-40) is shown. (B) Detailed view showing the interactions of the hydrophobic Ile-34 and Leu-37 histone H4 residues with Phe-29 and Leu-30 in helix 1 of RbAp46, as well as the positively charged Arg-36, Arg-39, and Arg-40 histone H4 residues with the backbone carbonyl groups in the PP loop and a cluster of acidic residues (Glu-356, Asp-357, and Asp-360) in RbAp46. […] In each experiment, the input lane contains 30% of the ^35S-labeled RbAp46 protein used in each of the pull-down assays. The experiments were carried out in 300 mM NaCl, 20 mM Tris (pH 8.0), 5 mM DTT, and 0.1% (v/v) NP-40.
Recombinant histone H4 and RbAp46 proteins were expressed and purified as described previously ([Verreault et al., 1998; Berger et al., 2004]). Detailed procedures for the generation of the RbAp46/histone H4 peptide and recombinant histone H4 complexes can be found in the Supplemental Data. Recombinant full-length (Xenopus lavis) histones H3 and H4 were expressed, purified, and refolded as described ([Luger et al., 1997]). For the binding experiments, histones H3/H4 and lysozyme (Sigma) were crosslinked to DynaBeads (Dynal Biotech) according to the manufacturer's recommendations. RbAp46 and histone H4 mutants were generated by using the QuikChange Site-Directed Mutagenesis kit (Stratagene). The RbAp46 mutants were expressed by using a Rabbit Reticulocyte Cell Free system (Promega).

RbAp46 or RbAp48 = details: ref Verreault et al., 1998; cited from earlier work

T1 sequence (Q16576 whole entry): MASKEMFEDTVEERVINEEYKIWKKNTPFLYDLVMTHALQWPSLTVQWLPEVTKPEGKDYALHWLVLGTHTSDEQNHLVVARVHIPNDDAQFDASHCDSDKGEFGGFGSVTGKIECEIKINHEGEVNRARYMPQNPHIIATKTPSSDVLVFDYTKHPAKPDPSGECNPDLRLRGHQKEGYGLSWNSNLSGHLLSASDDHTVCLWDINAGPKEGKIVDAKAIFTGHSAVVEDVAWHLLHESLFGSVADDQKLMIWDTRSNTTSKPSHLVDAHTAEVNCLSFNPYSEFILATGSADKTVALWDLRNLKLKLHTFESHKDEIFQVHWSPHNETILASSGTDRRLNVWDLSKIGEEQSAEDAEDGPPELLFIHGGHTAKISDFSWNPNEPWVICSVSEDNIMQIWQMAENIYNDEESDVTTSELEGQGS

Substance	Effect of histone H4 mutation on binding to RbAp46 (RbAp46 [2])	also measured
lysozyme: positively charged lysozyme protein (Sigma), negative control	–	Crosslinked species with RbAp46 (RbAp46 [1]): no crosslinked species
I34T + L37D + R35S: GST-histone H4 (1–48) mutated in residues interacting with both helix 1 and the charged PP loop	disrupt the binding	–
residues 15–41 of histone H4: residues 15–41 of histone H4, sufficient for recognition by RbAp46 or RbAp48 (earlier studies)	–	Recognition by RbAp46 or RbAp48 (RbAp46 or RbAp48): sufficient for recognition by either RbAp46 or RbAp48

More lines, main results first:

Effect of histone H4 mutation on binding to RbAp46 (RbAp46 [2])	Substance	also measured
disrupt the binding	R39V + R40N: GST-histone H4 (1–48) mutated in residues interacting with the charged PP loop	–
disrupt the binding	L37D + R39V + R40N: GST-histone H4 (1–48) mutated in residues interacting with both helix 1 and the charged PP loop	–
